Legend:
[1] = molecular target: HLA-A*01:01; experiment: IEDB peptide-MHC binding, purified MHC/competitive/fluorescence; ≥ and ≤ were set here for values at or beyond the usual limits of such assays
[2] = molecular target: HLA-A*02:01; experiment: as above; settings: source organism: Sudan ebolavirus
[3] = molecular target: HLA-A*02:01; experiment: IEDB peptide-MHC binding, purified MHC/competitive/fluorescence; filed as Kd, often an IC50 or EC50 that approximates it; ≥ and ≤ were set here for values at or beyond the usual limits of such assays
[4] = molecular target: HLA-A*02:03; experiment: as above
[5] = molecular target: HLA-A*02:11; experiment: as above
[6] = molecular target: HLA-A*02:12; experiment: as above
[7] = molecular target: HLA-A*02:19; experiment: as above
[8] = molecular target: HLA-A*03:01; experiment: as above
[9] = molecular target: HLA-A*23:01; experiment: as above
[10] = molecular target: HLA-A*24:03; experiment: as above
[11] = molecular target: HLA-A*26:01; experiment: as above
[12] = molecular target: HLA-A*29:02; experiment: as above
[13] = molecular target: HLA-A*68:02; experiment: as above
[14] = molecular target: HLA-A*69:01; experiment: as above
[15] = molecular target: HLA-B*15:01; experiment: as above
[16] = molecular target: HLA-B*15:17; experiment: as above
[17] = molecular target: HLA-B*18:01; experiment: as above
[18] = molecular target: HLA-B*27:03; experiment: as above
[19] = molecular target: HLA-B*39:01; experiment: as above
[20] = molecular target: HLA-B*46:01; experiment: as above
[21] = molecular target: HLA-B*51:01; experiment: as above
[22] = molecular target: HLA-B*57:01; experiment: as above
[23] = molecular target: HLA-A*68:02; experiment: IEDB peptide-MHC binding, purified MHC/competitive/radioactivity; filed as Kd, often an IC50 or EC50 that approximates it; ≥ and ≤ were set here for values at or beyond the usual limits of such assays; settings: source organism: Dengue virus 4 Philippines/H241/1956
[24] = molecular target: HLA-B*57:01; experiment: as above
[25] = molecular target: HLA-B*58:01; experiment: as above
[26] = molecular target: HLA-A*11:01; experiment: IEDB peptide-MHC binding, purified MHC/competitive/fluorescence; ≥ and ≤ were set here for values at or beyond the usual limits of such assays; settings: source organism: Vaccinia virus
[27] = molecular target: HLA-A*02:16; experiment: IEDB peptide-MHC binding, purified MHC/competitive/fluorescence; filed as Kd, often an IC50 or EC50 that approximates it; ≥ and ≤ were set here for values at or beyond the usual limits of such assays
[28] = molecular target: HLA-A*31:01; experiment: as above; settings: source organism: Entamoeba histolytica HM-1:IMSS
[29] = molecular target: HLA-A*01:01; experiment: IEDB peptide-MHC binding, purified MHC/competitive/radioactivity; filed as Kd, often an IC50 or EC50 that approximates it; ≥ and ≤ were set here for values at or beyond the usual limits of such assays; settings: source organism: Dengue virus 2 Jamaica/1409/1983
[30] = molecular target: HLA-A*32:01; experiment: as above
[31] = molecular target: HLA-B*53:01; experiment: as above; settings: source organism: Dengue virus 4 Philippines/H241/1956
[32] = source organism: Giardia lamblia ATCC 50803
[33] = source organism: Dengue virus 4 Philippines/H241/1956
[34] = source organism: Listeria welshimeri serovar 6b str. SLCC5334
[35] = source organism: Dengue virus 2 Jamaica/1409/1983
[36] = source organism: Dengue virus 3 Martinique/1243/1999
[37] = source organism: Entamoeba histolytica HM-1:IMSS
[38] = source organism: Shigella boydii CDC 3083-94
[39] = source organism: Influenza A virus (A/red knot/Delaware/2561/1987(H10N5))
[40] = source organism: Bacillus cereus G9241

VTEIDQLVC
34.2 µM: IC50 ([1]; source organism: Sudan ebolavirus)
≥ 322 µM: IC50 [2]

LLDDGWAGE
≥ 20 µM: Kd [3, 32] | Kd [4, 32] | Kd [5, 32] | Kd [7, 32] | Kd [8, 32] | Kd [9, 32] | Kd [10, 32] | Kd [11, 32] | Kd [12, 32] | Kd [13, 32] | Kd [14, 32] | Kd [15, 32] | Kd [16, 32] | Kd [17, 32] | Kd [18, 32] | Kd [19, 32] | Kd [20, 32] | Kd [21, 32] | Kd [22, 32]
6 µM: Kd [6, 32]

LASMAICSAV
0.586 µM: Kd [25, 33]
0.0262 µM: Kd [23]
≥ 21.9 µM: Kd [24, 33]

ELYENKPDV
0.303 µM: Kd [7, 34]
≥ 20 µM: Kd [6, 34] | Kd [8, 34] | Kd [9, 34] | Kd [10, 34] | Kd [11, 34] | Kd [12, 34] | Kd [15, 34] | Kd [17, 34] | Kd [18, 34] | Kd [19, 34] | Kd [20, 34] | Kd [21, 34] | Kd [22, 34]
0.515 µM: Kd [3, 34]

TASGKLITEW
0.0497 µM: Kd [24, 35]
0.163 µM: Kd [25, 35]

GTEKEFLRY
6.64 µM: IC50 ([1]; source organism: Vaccinia virus)
11.5 µM: IC50 [26]

NSSFIIDGPN
0.142 µM: Kd [24, 36]
0.00543 µM: Kd [25, 36]

RTFDRFFEE
0.318 µM: Kd [28]
≥ 20 µM: Kd [3, 37] | Kd [4, 37] | Kd [5, 37] | Kd [6, 37] | Kd [27, 37] | Kd [7, 37] | Kd [8, 37] | Kd [9, 37] | Kd [10, 37] | Kd [11, 37] | Kd [12, 37] | Kd [13, 37] | Kd [14, 37] | Kd [15, 37] | Kd [17, 37] | Kd [18, 37] | Kd [19, 37] | Kd [20, 37] | Kd [21, 37] | Kd [22, 37]

MAMTGLPQA
0.0008 µM: Kd [3, 38]
≥ 20 µM: Kd [8, 38] | Kd [9, 38] | Kd [10, 38] | Kd [11, 38] | Kd [12, 38] | Kd [15, 38] | Kd [16, 38] | Kd [17, 38] | Kd [18, 38] | Kd [19, 38] | Kd [20, 38] | Kd [22, 38]
0.0003 µM: Kd [7, 38]

VMTDGPANK
≥ 20 µM: Kd [3, 39] | Kd [4, 39] | Kd [6, 39] | Kd [7, 39] | Kd [9, 39] | Kd [10, 39] | Kd [11, 39] | Kd [12, 39] | Kd [15, 39] | Kd [16, 39] | Kd [17, 39] | Kd [18, 39] | Kd [19, 39] | Kd [20, 39] | Kd [21, 39] | Kd [22, 39]
0.199 µM: Kd [5, 39]

STSLSVSLVL
0.667 µM: Kd [24, 35]
12 µM: Kd [29]

DEEAINLFH
0.692 µM: Kd [17, 40]
≥ 20 µM: Kd [3, 40] | Kd [4, 40] | Kd [5, 40] | Kd [6, 40] | Kd [27, 40] | Kd [7, 40] | Kd [8, 40] | Kd [9, 40] | Kd [10, 40] | Kd [11, 40] | Kd [12, 40] | Kd [13, 40] | Kd [14, 40] | Kd [15, 40] | Kd [16, 40] | Kd [18, 40] | Kd [19, 40] | Kd [20, 40] | Kd [21, 40] | Kd [22, 40]

MVMTTTANW
0.011 µM: Kd [24, 33]
0.00345 µM: Kd [31]
0.0162 µM: Kd [25, 33]
0.0263 µM: Kd [30, 33]

RVWIQENPW
0.0034 µM: Kd [25, 35]
0.00787 µM: Kd [24, 35]
0.0224 µM: Kd [30, 35]

IGLSSRATW
0.0481 µM: Kd [24, 33]
0.00663 µM: Kd [25, 33]

Source: the Immune Epitope Database (IEDB)
